From patent US20250277199, “NOVEL CRISPR-CAS NUCLEASES FROM METAGENOMES” (Brain Biotech AG, published 2025)

Target: T1, BMC08 (uncultured bacterium (metagenome))
T1 chain: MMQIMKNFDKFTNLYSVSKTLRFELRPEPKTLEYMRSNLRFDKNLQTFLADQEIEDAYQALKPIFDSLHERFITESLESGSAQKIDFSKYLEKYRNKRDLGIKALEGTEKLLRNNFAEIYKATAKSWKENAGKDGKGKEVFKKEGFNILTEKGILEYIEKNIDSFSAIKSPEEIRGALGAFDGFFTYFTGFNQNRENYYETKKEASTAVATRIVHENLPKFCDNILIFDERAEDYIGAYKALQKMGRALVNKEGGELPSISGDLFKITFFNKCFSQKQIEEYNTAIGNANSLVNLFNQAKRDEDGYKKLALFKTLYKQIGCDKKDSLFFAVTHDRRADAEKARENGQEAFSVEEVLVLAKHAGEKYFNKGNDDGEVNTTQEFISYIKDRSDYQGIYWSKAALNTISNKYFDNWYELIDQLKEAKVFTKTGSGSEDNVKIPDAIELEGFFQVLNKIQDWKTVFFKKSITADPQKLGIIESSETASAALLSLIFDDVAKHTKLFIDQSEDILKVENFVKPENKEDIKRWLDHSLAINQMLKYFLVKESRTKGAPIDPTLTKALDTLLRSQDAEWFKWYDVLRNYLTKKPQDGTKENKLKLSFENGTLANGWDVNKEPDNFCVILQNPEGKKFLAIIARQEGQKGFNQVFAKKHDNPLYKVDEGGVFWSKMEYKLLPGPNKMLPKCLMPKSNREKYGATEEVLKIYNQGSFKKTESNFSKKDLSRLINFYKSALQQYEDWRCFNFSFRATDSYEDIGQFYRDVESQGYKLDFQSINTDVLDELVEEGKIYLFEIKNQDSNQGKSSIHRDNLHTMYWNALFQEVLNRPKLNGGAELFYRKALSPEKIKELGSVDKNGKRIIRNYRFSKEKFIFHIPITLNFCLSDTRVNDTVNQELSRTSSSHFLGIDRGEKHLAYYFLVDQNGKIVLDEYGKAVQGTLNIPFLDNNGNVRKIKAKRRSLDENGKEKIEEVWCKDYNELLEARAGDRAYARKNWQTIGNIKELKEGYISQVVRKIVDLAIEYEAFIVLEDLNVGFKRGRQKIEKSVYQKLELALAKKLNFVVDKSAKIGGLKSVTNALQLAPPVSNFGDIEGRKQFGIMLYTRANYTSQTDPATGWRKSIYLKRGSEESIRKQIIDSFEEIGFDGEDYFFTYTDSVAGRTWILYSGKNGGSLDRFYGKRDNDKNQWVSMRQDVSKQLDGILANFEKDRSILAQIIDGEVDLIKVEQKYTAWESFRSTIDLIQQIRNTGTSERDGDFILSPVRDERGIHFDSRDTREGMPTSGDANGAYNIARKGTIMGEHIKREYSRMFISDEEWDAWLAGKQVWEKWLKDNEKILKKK
Assay: cell_activity; PAM not stated; E. coli depletion, 30 C
Summary of the method: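 E. coli carrying arabinose-induced (0.2%) BMC nuclease, grown at 30° C., made electrocompetent and electroporated with 50-100 ng plasmid carrying gRNA against malQ. Transformants plated on selective M9-glucose agar with kanamycin/ampicillin (± nourseothricin), and growth scored after 48 h at 30° C.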

B1: malQ gRNA (BMC stem-loop + 24 nt spacer) ; malQ protospacer (ssRNA ; dsDNA)
RNA: GAUUUCUACUAUUGUAGAUGUGGCGGUACGUUGAUGCAUCGCG
DNA 1: GTGGCGGTACGTTGATGCATCGCG
DNA 2: CGCGATGCATCAACGTACCGCCAC
- activity: > 99.9 % colony reduction
